We go through two molecules from patent publication US20230049732A1 (UNIVERSITY OF LOUISVILLE RESEARCH FOUNDATION, published 2023).

Experiment [1] concerns the target T1, HPV16 VLPs (human papillomavirus type 16, UniProt P03101 1-505).
T1 construct: Specificity control; also called human papillomavirus VLPs
T1 sequence: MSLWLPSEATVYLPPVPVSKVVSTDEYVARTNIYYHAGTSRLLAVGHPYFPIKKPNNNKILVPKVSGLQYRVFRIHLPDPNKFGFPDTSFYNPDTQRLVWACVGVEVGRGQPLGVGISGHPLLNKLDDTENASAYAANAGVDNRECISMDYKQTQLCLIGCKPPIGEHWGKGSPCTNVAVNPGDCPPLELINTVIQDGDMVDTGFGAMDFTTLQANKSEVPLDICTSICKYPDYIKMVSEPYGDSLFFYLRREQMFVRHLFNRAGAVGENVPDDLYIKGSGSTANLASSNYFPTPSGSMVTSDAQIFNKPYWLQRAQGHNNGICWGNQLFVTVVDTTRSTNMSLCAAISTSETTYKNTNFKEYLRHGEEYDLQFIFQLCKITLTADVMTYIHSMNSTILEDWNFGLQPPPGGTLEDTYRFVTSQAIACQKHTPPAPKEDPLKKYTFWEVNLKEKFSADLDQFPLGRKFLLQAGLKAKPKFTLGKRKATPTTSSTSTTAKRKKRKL
In words: ELISA, VLPs coated. For orientation: ELISA stands for enzyme-linked immunosorbent assay.

Experiment [2] addresses T1, HPV16 VLPs. In words: ELISA, intact VLPs coated, hybridoma supernatant.

B1: MAb #61 (antibody, V domains shown)
VH: QVQLQQSGAELARPGASVKMSCKASGYTFTSYTMHWVKQRPGQGLEWIGYINPSSGYTNYNQKFKDKATLTADKSSSTAYMQLSSLTSEDSAVYYCARPDGYYAWFAYWGQGTLVTVSA
VL: DIQMTQSSSSFSVSLGDRVTITCKASEDIYNRLAWYQQKPGNAPRLLISGATSLETGVPSRFSGSGSGKDYTLSITSLQTEDVATYYCQQYWSTPTFGGGTKLEIK
notes: Murine hybridoma antibody, supernatant; also called antibody 61
Consider B1, for which the binding result in experiment [1] is given as “no binding”. Also, in experiment [2], the “ELISA absorbance (405 nm)” value is 0.061.

B2: MAb #19B (antibody, V domains shown)
VH: QVQLQQSGAELARPGASVKMSCKASGYTFTSYTMYWVKQRPGQGLEWIGYVNPSSGYTNYNQKFKDKATLTADKSSSTAYMQLSSLTSEDSAVYYCARHGNYRYDGYYGMDCWGQGTSVTVSS
VL: DIQMTQSSSSFSVSLGDRVTITCKASEDIYNRLAWYQQKPGNAPRLLISGATSLETGVPSRFSGSGSGKDYTLSITSLQTEDVATYYCQQYWSTPYTFGGGTKLEIK
notes: Murine hybridoma antibody, supernatant; also called antibody 19
Turning to B2, in experiment [1], the binding result is given as “no binding”. Also, the “ELISA absorbance (405 nm)” value in experiment [2] was 0.015.
